From patent US8637452B2, “Water soluble membrane proteins and methods for the preparation and use thereof” (Massachusetts Institute of Technology, priority 2011, dated 2014)

Target: T1, SDF1α (Homo sapiens, UniProt P61073, F172Y/F264Y/F293Y/F304Y/F36Y/F49Y/F93Y/I162T/I169T/I173T/I243T/I257T/I286T/I300T/I39T/I53T/I89T/L165Q/L246Q/L253Q/L290Q/L297T/L301Q/L50Q/L86Q/V242T/V82T/V96T/V99T)
T1 construct: HUMAN CXCR4 QTY; made in house; host or cells: cell-free production
Experiment: Surface Plasmon Resonance analysis of CXCR4 QTY (Biacore, receptor captured on 1D4 Ab, SDF1α injected)
Assay type: binding
Conditions: SPR, Biacore 2000, CM5 chip; SDF1α 0-1 μM; HBST with 0.2% BSA and 0.2% Fos-Choline-14
Protocol: Human CXCR4 and our CXCR4 QTY proteins obtained from cell-free production and purified with affinity beads were captured in different flow cells on a Biacore CM5 chip with immobilized 1D4 Antibody (Ab) in a Biacore 2000 instrument. Different concentrations of SDF1α, the native ligand for hCXCR4 receptor, were injected over the surface to allow interaction with the receptors.
Biacore CM5 chips were activated with 1-Ethyl-3-[3-dimethylaminopropyl]carbodiimide hydrochloride and N-hydroxysuccinimide according to the manufacturer's protocol prior to a 7 minute injection at 5 μl/min of 1D4 Ab to flow cells 2-4 at 70 μg/ml followed by deactivating of the surfaces in all the 4 flow cells with a short Ethanolamine pulse. The immobilization level of 1D4 Ab range from 8000-25000 Response units (RU).
CXCR4 and CXCR4 QTY mutant are captured by the 1D4 Ab on the CM5 chip by injecting a 0.1 mg/m1 sample of the protein to a single flow cell at 5 μl/min during 15 min with both sample and running buffer containing 0.2% Fos-Choline-14 detergent. The receptors were captured to a level of 800-3000 RU.
SDF1α were injected over all flow cells to allow interaction with both the receptors and flow cell one is used as a reference cell without any immobilized protein. […]

B1: CXCR4 QTY: Water-soluble human CXCR4 variant with 29 QTY mutations in the seven transmembrane helices (SEQ ID NO: 10) (protein)
chain: MEGISIYTSDNYTEEMGSGDYDSMKEPCFREENANYNKTFLPTIYSIIYQTGTVGNGLVILVMGYQKKLRSMTDKYRLHLSTADLQFVTTLPYWATDATANWYFGNFLCKAVHVIYTVNLYSSVLILAFISLDRYLAIVHATNSQRPRKLLAEKVVYVGVWTPAQLLTTPDYTFANVSEADDRYICDRFYPNDLWVVVFQFQHIMVGLILPGIVILSCYCIIISKLSHSKGHQKRKALKTTTTLIQAFFACWQPYYTGISIDSYILLEIIKQGCEFENTVHKWISTTEAQAFYHCCTNPTQYAYLGAKFKTSAQHALTSVSRGSSLKILSKGKRGGHSSVSTESESSSSFHS
ligand binding (SDF1α): shows ligand binding
